Measurements taken from article PMC2572730, “Structural Basis for the Recognition of Histone H4 by the Histone-Chaperone RbAp46” (Structure(London, England:1993), 2008).

Legend:
[1] = biological target: T1, RbAp46 (pRB-associated protein p46), human, recombinant (human, UniProt Q16576 1-411); experiment: SPR; RbAp46 crosslinked to a CM5 chip, N-terminal histone H4 peptide as analyte; 10 mM HEPES (pH 7.4), 150 mM NaCl, 0.0005% (v/v) Surfactant P20; conditions: both partners purified
T1 construct: RbAp46 (RBBP7), human; also called RBBP7; RbAb46; source: recombinant, expressed and purified as described previously (Verreault et al., 1998; Berger et al., 2004)

[2] = biological target: T1, RbAp46 (pRB-associated protein p46), …; experiment: other fluorescence titration; intrinsic tryptophan fluorescence of 45 nM RbAp46, increasing H3/H4 or H4 peptide (16-41); 50 mM Tris-HCl (pH 7.5), 200 mM NaCl, 5 mM DTT, 25°C; excitation 295 nm, emission 435 nm; single binding-site model; KD for H3/H4 called apparent; conditions: both partners purified

T1 sequence (Q16576 1-411): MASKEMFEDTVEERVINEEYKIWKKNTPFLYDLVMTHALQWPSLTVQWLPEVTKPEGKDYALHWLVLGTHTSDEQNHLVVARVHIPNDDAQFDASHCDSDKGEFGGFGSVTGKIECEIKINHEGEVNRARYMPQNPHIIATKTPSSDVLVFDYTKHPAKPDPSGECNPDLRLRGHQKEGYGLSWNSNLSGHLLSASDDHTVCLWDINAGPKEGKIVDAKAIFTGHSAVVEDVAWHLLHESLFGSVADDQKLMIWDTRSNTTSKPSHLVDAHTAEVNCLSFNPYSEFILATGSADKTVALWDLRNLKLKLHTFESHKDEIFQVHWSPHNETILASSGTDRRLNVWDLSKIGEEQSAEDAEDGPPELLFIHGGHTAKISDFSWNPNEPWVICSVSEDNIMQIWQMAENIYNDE

Kd [1]: ~1000 nM
Kd [2]: 1100 nM
B1: synthetic histone H4 peptide (residues 16-41) (peptide)
peptide: not shown
notes: histone H4 residues 16-41; also called N-terminal histone H4 peptide; H4(16-41); source: synthetic peptide
